The values that follow come from a protein production outcome set (Wang et al. 2014).

This data set can be described thus: label from the status in PepcDB records.
For the sequence “MRAAALAGAAGVVLCLLGGIGGAVAALSLWLAQPAFALAVSWARGTRAVPGQPRAIAQALPPLLAIWGVGLLALAALISWPLTALRDSGSLAAALALSVAVSAALLGLWRTWPLWGEVERDGGALAPRWQALAAQELHAWRGLLAAALVLAMCTLAVVLAWPGWLSGGLRWGLAVAACVLLPVAHLLLQRTPAPMRSDVPQTRQAADFFSEAAAEPRPLEPVAQHQLVPELFEAARSGRVDRALQLLEAGADPQALPLPEWRDQRSLPALAAVLPDLRLLRELIVRRVDVNQPHRGMTPLLAATRDSWHGRPDAVMTLLANGADPRASDNDGNTPLHHAVRSSDPGVAALLHDAAAELDALNNEGHSPLAMACQVGNWRLAKFLLERGAQSEPEGGAPVLLAAAGTEEDDPAGVQLLLKHKARVDARDRQRRSALHEAALAGHGDIVEALLSAGANLEARDLLGRTPWLDAARQARSAVLERLVARKADVLAIDGDGRNALMLACAADNVSPALIRRLLDLQVPADSVDAHGRRAVDVAAEAGRWAIVQLLDPAYPLPAAVSDAQGDTPGAAVLPDRPPLVLLREGLQLGQRDGLVALARLCAPDELGGLLHDAHLALNAEAVDWLLRHGADAEVRDACGDVPMFALLSRGVEAVPALQALLRHGVSPAGAGGLTRLLSACVQHDAASRGLEQFALELLERGADPFAPSAAGDPPLSLAVRLGWLRLQHWLLEHGVDREARDSHGMTALHLATALGRDASLKLLVKQGASPEARAADGQTPLGVALSIGRRDLADWLDWRIWSLPRRTLREADVPAAAMTGDTDAVRRLIDLGLAVDAVDAQGCTALLRAAGGGHLGVVTHLLGRGADPQRAANSGATPLSAAVSMRQTEIVAALLHAGAQIEHRLPGGVTVLMLACALGLPDIVARLLTAAADVHATDNQGLAPLHCAALYGFTARDKNRLLALLDTLLLAGADPDYLAGGRVSPLLLLLGARAEPGTSCDEQVVLAGVERLLDEDVSLDVADQRGFGPLHLAALHGLPLLVQRLLRAGADADRRDALNRTPREIAIMRGFIDVAGQFEPALPGVSSMARFLREGR”, the protein production result is listed as “failed”.

In the case of “MSIEERLEALEKEIQKMKDIEEIKKLKGQYFRCLDGKFWDELETTLSPNIVTSYSNGKLVFHGPKEVTDYFKKAMPREEISMHMGHTPEITIDSETTATGRWYLEDKLIFTEESKYAGSGVNGGAFYTDKYEKVDGKWYILETGYLRVYEEHFMRDPKIKITMNMHKTK”, the protein production entry is “not failed”.

“MKELQEKNEQITLLVEMSDIMLACGSQEELSEVMAKYSQRLLQFSSGYLFIMHPSKNYLEKAASWGNPHPHDLTFTPEQCWAIRLGRIHYAGSSRIELMCSHMMFDEQPELSLLCVPLMAQNDIYGLLYLEVGLKFDENQQLLITAFAELTALALANVRLRENLRYQSIR”: the protein production result is given as “failed”.

Consider “MALKLGLTEAVSLGITHISIYCDHFQIFELVMWRSVPDKDSIAMIMYDVQRIRQQLTSSTPLLVTGNQTNKLAYELALETLVSEISISIEEKALTCDKN”, for which the protein production entry is recorded as “failed”.

As for “MLWHVFYGRGRMLLSNHAQGRNFRPIFVMSDPISWTAEATERLKEIPFFVRPAARKKIENFAREAGITEITETVYEQAKQKFN”, the protein production entry is listed as “failed”.

Regarding “IPTCKITLKETFLTSPEELYRVFTTQELVQAFTHAPATLEADRGGKFHMVDGNVSGEFTDLVPEKHIVMKWRFKSWPEGHFATITLTFIDKNGETELCMEGRGIPAPEEERTRQGWQRYYFEGIKQTFGYGA”, the protein production entry is listed as “not failed”.

As to “MQAGPSAAVENKIITLVESILAQNGIAGGIERDTTFADAGLTSMEMVNLMLAVEAEFDMTLPQSDITPENFTSAATVAQLVSRRQHAQAALEHHHHHH”, the protein production entry is “not failed”.

On to “MSLQWECWPSLPCWRCFAASGRITLSIKRFTQNSRRHDMKITKINAIPLSYRLPEGKTVTMGVGSTIKRDAIIIRVETSEGITGYGEAHPGRSPGAITSLIHNTIAPMLIGMKATDCVGAWQRVHRMQLSSHGLGAGAALAISGIDMALWDIRGKAANMPLYELLGGSKRRIPAYAGGIALGYQPKESLAEEAQEYIARGYKALKLRIGDAARVDIERVRHVRKVLGDEVDILTDANTAYTMADARRVLPVLAEIQAGWLEEPFACNDFASYREVAKITPLVPIAAGENHYTRFEFGQMLDAGAVQVWQPDLSKCGGITEGIRIAAMASAYRIPINAHSSATGLNHAATIHFLAATENAGYFEACVSKFNPFRDMFGTSFEIGADGCVEPPDAPGLGIEVDESIFEKYPAVDGPGYVVKFEGHHHHHH”, for which the protein production result is “not failed”.

As for “LQVGKVYIFGSGHVARALVPILNYLSFYCVVVDDRPEFLTAQAFPQAEELRVIPLENLAAFIEITADDYGIVITRGHNFDFIVAKQLLETPAKYIGVMGSKHKIASQVRRLKEVGYTMTEIERIFMPIGLDIAAETPEELAISIAGELIQQRYQ”, the protein production entry was “failed”.
